B1: CHI wild-type: chalcone isomerase from Medicago sativa (alfalfa), SEQ ID NO:1, expressed in E. coli (protein, listed as Medicago sativa)
chain: MAASITAITVENLEYPAVVTSPVTGKSYFLGGAGEXGXTIEGNFIKFXAIGVYLEDIAVASLAAKWKGKSSEELLETLDFYRDIISGPFEKLIRGSKIRELSGPEXSRXXMEXCVAHLKSVGTYGDAEAEAMQKFAEAFKPVNFPPGASVFYRQSPDGILGLSFSPDTSIPEKEAALIENKAVSSAVLEXXIGEHAVSPDLKRCLAARLPALLNEGAFKIGN
modifications: MOD_RES (36) Arg, Met, Lys, Ala, His or Gln
B2: CHI Y106F: alfalfa chalcone isomerase mutant, Tyr 106 substituted by phenylalanine (protein, UniProt P28012 1-222, looked up, variant Y106F)
Chalcone--flavanone isomerase …: MAASITAITVENLEYPAVVTSPVTGKSYFLGGAGERGLTIEGNFIKFTAIGVYLEDIAVASLAAKWKGKSSEELLETLDFYRDIISGPFEKLIRGSKIRELSGPEFSRKVMENCVAHLKSVGTYGDAEAEAMQKFAEAFKPVNFPPGASVFYRQSPDGILGLSFSPDTSIPEKEAALIENKAVSSAVLETMIGEHAVSPDLKRCLAARLPALLNEGAFKIGN

Legend:
CHI active site = target: T1, CHI active site (Medicago sativa, UniProt P28012); experiment: Co-crystallization of CHI with (2S/2R)-naringenin, X-ray structure; format: binding, Medicago sativa (alfalfa); conditions: commercial mixture of (2S)- and (2R)-naringenin used for co-crystallization
T1 construct: histidine tag (pHIS8 vector) (N, cleaved yes); made in house; host or cells: E. coli BL21(DE3)
T1 sequence (P28012 1-222): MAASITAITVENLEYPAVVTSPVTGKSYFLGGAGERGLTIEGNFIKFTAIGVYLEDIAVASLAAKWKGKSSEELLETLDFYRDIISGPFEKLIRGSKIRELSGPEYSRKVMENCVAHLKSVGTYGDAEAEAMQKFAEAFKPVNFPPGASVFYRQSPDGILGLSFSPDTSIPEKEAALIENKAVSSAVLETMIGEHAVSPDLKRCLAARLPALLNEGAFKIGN
Protocol: Crystals of CHI (SEQ ID NO:1) were grown at 4° C. by vapor diffusion using the hanging drop method. A 2 μl drop containing a 1:1 mixture of 25 mg ml^−1 CHI and crystallization buffer (25% glycerol, 1.8-2.0 M ammonium sulfate and 0.05 M PIPES, pH 6.5) yielded diffraction quality crystals within a few days at 4° C. Crystals grew in space group P6522 with unit cell dimensions of a=90.37 Å; c=352.86 Å with two molecules per asymmetric unit and a solvent content of 72%. Native CHI diffraction data (105 K) were collected at beamline 7-1 of the Stanford Synchrotron Radiation Source (SSRL 7-1) on a 30 cm MAR imaging plate system. For generation of heavy atom derivatives, CHI crystals were soaked in mother liquor with either 1.2 mM K2OsCl6 or 1 mM HgCl2 for 12-16 hours. Heavy atom data (105 K) were collected at SSRL 9-1 on a 30 cm MAR imaging plate system. All images were indexed and integrated using DENZO and the reflections merged with SCALEPACK (Otwinowski, Z. & Minor, W., Methods Enzymol. 276:307-326, 1997). Data reduction was completed using programs from CCP4 (Collaborative Computational Project 4 (CCP4) Acta Crystallogr. D53:240-255, 1994) (See Table 3). […]

chalcone isomerase (CHI) [1] = experiment: CHI enzyme assay, steady-state kinetics of 6′-deoxychalcone cyclization; format: biochemical, Medicago sativa (alfalfa); conditions: for kcat: cyclization of 6′-deoxychalcone, pH 7.5, substrate 2-50 μM; for kcat / Km: 25° C.; for Km: substrate 6′-deoxychalcone, pH 7.5
Protocol: CHI assays were performed at 25° C. in a 0.5 ml reaction volume containing 0.05 M Hepes (pH 7.5), 50 μM 6′-deoxychalcone, and 3% ethanol as co-solvent. Time-dependent decreases in 6′-deoxychalcone absorbance (λmax=390 nm; ε=29,400 M^−1 cm^−1) were monitored with a Beckman DU-640 spectrophotometer. Determination of steady-state kinetic constants used the standard assay system with varied concentrations of substrate (2-50 μM) following fitting to the Michaelis-Menton equation using KALEIDAGRAPH (Abelbeck Software).

chalcone isomerase (CHI) [2] = conditions: cyclization of chalcone; cited from earlier work
[3] = target: T2, alfalfa chalcone synthase 2 (Medicago sativa, UniProt P30074); experiment: Gel filtration and analytical ultracentrifugation for protein association in vitro; format: binding
T2 sequence (P30074 1-389): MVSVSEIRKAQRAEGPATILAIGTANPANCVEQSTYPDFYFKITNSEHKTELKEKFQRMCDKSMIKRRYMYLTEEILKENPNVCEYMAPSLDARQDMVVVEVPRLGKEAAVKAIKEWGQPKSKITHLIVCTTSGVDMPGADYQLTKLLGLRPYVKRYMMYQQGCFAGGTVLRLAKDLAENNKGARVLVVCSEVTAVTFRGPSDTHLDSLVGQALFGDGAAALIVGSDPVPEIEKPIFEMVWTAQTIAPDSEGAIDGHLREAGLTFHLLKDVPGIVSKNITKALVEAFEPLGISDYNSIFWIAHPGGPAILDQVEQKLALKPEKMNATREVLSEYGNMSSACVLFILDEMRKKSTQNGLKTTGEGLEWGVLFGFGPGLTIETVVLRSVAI

| Molecule | binding to CHI active site in co-crystal (CHI active site) | kcat (chalcone isomerase (CHI) [1]) [min⁻¹] | kcat (chalcone isomerase (CHI) [1]; listed as wild-type CHI) [min⁻¹] | Km (chalcone isomerase (CHI) [1]) [µM] | enzyme-catalyzed rate over spontaneous conversion rate (chalcone isomerase (CHI) [2]) | association of alfalfa CHI and alfalfa chalcone synthase 2 [3] | reduction in reaction rate (chalcone isomerase (CHI) [1]; Y106F mutant versus wild-type CHI, 6′-deoxychalcone) [fold] | kcat (chalcone isomerase (CHI) [1]; listed as CHI Y106F mutant) [min⁻¹] |
| --- | --- | --- | --- | --- | --- | --- | --- | --- |
| O=C1C[C@@H](c2ccc(O)cc2)Oc2cc(O)cc(O)c21 [(2S)-naringenin, 5,7,4′-trihydroxyflavanone] | bound the CHI active site |  |  |  |  |  |  |  |
| B1 |  | 4384 ± 517 | 4384 | 25.7 | 10^7 fold | failed to detect association |  |  |
| B2 |  | 69.0 ± 5.1 |  | 29.1 |  |  | 100 | 69.0 |

Source: patent US7792645B2, “Three-dimensional structure of chalcone isomerase and methods of use thereof” (The Salk Institute for Biological Studies, priority 2000, dated 2010)
